Measurements reported in paper PMC4726326, “The Arabidopsis glutamyl-tRNA reductase (GluTR) forms a ternary complex with FLU and GluTR-binding protein” (Scientific Reports, 2016).

B1: C-terminal tetratricopeptide-repeat domain of Arabidopsis FLUORESCENT (FLU), residues 195-316 (domain or fragment, Arabidopsis thaliana, UniProt Q940U6 195-316, looked up)
chain: IVEPKKQELISKLKTGKTFLRNQEPEKAYTEFKIALELAQSLKDPTEEKKAARGLGASLQRQGKYREAIQYHSMVLAISKRESEDSGITEAYGAIADCYTELGDLEKAGKFYDTYIARLETD
notes: FLUORESCENT (FLU), Arabidopsis thaliana, At3g14110, truncation of residues 195-316 (TPR domain); Expression vector pET-22b(+); also called FLU^TPR; the recombinant TPR domain of FLU
B2: Arabidopsis glutamyl-tRNA reductase (GluTR), residues 73-543 (enzyme, Arabidopsis thaliana, UniProt P42804 73-543, looked up)
chain: AASISALEQLKNSAADRYTKERSSIVVIGLSIHTAPVEMREKLAIPEAEWPRAIAELCGLNHIEEAAVLSTCNRMEIYVLALSQHRGVKEVTEWMSKTSGIPVSEICQHRFLLYNKDATQHIFEVSAGLDSLVLGEGQILAQVKQVVKVGQGVNGFGRNISGLFKHAITVGKRVRTETNIASGAVSVSSAAVELALMKLPQSSNVSARMCVIGAGKMGKLVIKHLMAKGCTKVVVVNRSEERVSAIREEMPGIEIIYRPLDEMLACASEADVVFTSTASETPLFLKEHVENLPQASPEVGGLRHFVDISVPRNVGSCVGEVETARVYNVDDLKEVVAANKEDRMRKAMEAQTIITEESTQFEAWRDSLETVPTIKKLRAYAERIRVAELEKCMSKMGDDINKKTTRAVDDLSRGIVNRFLHGPMQHLRCDGSDSRTLSETLENMHALNRMYGLEKDILEEKLKAMAEQQQK
notes: Expression vector pMAL-c5X; GluTR dimer fractions were collected from the gel filtration
B3: Arabidopsis GluTR-binding protein (GBP), residues 42-317 (natural protein, Arabidopsis thaliana, UniProt Q9LU39 42-317, looked up)
chain: CSVSTTLDTPATASTHKPFPAEVSRSIMELSSVGTLSTLTHDGWPLGVGVRFAVDKDGTPVLCLNRSVSPDKRSALHVQLEQCGLRTPQCTIQGSIGRPGDDTVLKRLSATWREKFGEEVKEDSLYVVAVDRVLQMEDFMEDGIWVASSDYKNASPDPLRDIAEDIVNQINANNMEDIFRFCNVYVDLDFVVSETKMIWMDRLGFDLRVWSPRGVYDVRIPFPMEVTDEKGAKSSFNGMSQLAWEVEKSYCPADFNKVKLLKQVVGSSHSHKGGGQ
notes: Expression vector pET-28a(+)

Columns and labels:
[1] = molecular target: the molecule itself; assay: crystal structure; FLU^TPR-GluTR-GBP ternary complex, space group C2, 3.2 Å, PDB 5CHE; sitting drop, 16 °C
[2] = molecular target: B2; assay: SEC; purified GluTR, GBP and FLU^TPR mixed at molar ratio 2:3:3, 1 hour at 4 °C; HiLoad 16/60 Superdex 200 pg; 20 mM Tris-HCl pH 7.5, 200 mM NaCl, 4 mM dithiothreitol; conditions: both partners purified
[3] = molecular target: B2; assay: ITC; MicroCal iTC200, 25 °C; 20 mM Tris-HCl pH 7.5, 150 mM NaCl; 20 injections of 2 μl of 0.5 mM protein into 200 μl of 50 μM protein; one-site binding model; apparent Kd; conditions: both partners purified

| Kd [3] | Binder | binding result [1] | binding result [2] | stoichiometry N [1] |
| --- | --- | --- | --- | --- |
| – | B1 | binds | binds | – |
| – | B2 | – | – | 2 |
| 41.3 ± 3.7 nM | B3 | binds | – | – |
